T1: Full-length human CTGF (human, UniProt P29279 27-349)
T1 construct: Corresponds to NCBI NP_001892.1 with the signal peptide omitted; purchased from R&D Systems; also called hCTGF full length; full length CTGF
T1 sequence: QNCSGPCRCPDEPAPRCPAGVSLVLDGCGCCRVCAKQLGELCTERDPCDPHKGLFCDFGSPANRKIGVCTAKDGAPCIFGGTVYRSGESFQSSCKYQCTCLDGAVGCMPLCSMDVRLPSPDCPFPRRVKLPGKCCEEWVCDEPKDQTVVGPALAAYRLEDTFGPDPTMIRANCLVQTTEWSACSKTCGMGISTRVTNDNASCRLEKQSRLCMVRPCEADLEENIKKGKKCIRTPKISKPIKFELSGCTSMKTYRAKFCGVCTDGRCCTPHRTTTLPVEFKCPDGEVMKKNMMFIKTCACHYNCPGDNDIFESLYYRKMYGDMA

B1: A69 (antibody, human IgG1, kappa, L234A L235A)
light: VVMTQTPLSLPVSLGDQASISCRSSQSIVHYNTNTYLEWYLQKPGQSPQLLIYKVSNRFSGVPDRFSGSGSGTDFTLKISRVEAEDLGVYYCFQGSHFPLTFGQGTKLEIKRTVAAPSVFIFPPSDEQLKSGTASVVCLLNNFYPREAKVQWKVDNALQSGNSQESVTEQDSKDSTYSLSSTLTLSKADYEKHKVYACEVTHQGLSSPVTKSFNRGEC
heavy: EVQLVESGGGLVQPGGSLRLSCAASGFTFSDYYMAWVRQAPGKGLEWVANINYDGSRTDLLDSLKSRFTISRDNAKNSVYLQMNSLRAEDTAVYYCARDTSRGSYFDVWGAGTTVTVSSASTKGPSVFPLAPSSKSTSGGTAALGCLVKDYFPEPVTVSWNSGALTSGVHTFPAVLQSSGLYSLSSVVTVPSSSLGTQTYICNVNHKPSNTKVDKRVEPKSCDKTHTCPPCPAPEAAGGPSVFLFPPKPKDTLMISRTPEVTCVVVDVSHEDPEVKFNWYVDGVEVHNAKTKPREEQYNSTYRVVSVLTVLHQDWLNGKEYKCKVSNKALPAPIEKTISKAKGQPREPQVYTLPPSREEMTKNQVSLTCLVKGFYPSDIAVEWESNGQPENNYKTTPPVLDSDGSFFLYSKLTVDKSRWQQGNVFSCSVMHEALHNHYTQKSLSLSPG
B2: A70 (antibody, human IgG1, kappa, L234A L235A, V domains shown)
VH: EVQLVESGGGLVQPGGSLRLSCAASGFTFSDYYMAWVRQAPGKGLEWVANINYEGSRTDLLDSLKSRFTISRDNAKNSVYLQMNSLRAEDTAVYYCARDTSRGSYFDVWGAGTTVTVSS
VL: VVMTQTPLSLPVSLGDQASISCRSSQSIVHYNTNTYLEWYLQKPGQSPQLLIYKVSNRFSGVPDRFSGSGSGTDFTLKISRVEAEDLGVYYCFQGSHFPLTFGQGTKLEIKR
B3: A71 (antibody, human IgG1, kappa, L234A L235A, V domains shown)
VH: EVQLVESGGGLVQPGGSLRLSCAASGFTFSDYYMAWVRQAPGKGLEWVANINYDGSRTDLLESLKSRFTISRDNAKNSVYLQMNSLRAEDTAVYYCARDTSRGSYFDVWGAGTTVTVSS
VL: VVMTQTPLSLPVSLGDQASISCRSSQSIVHYNTNTYLEWYLQKPGQSPQLLIYKVSNRFSGVPDRFSGSGSGTDFTLKISRVEAEDLGVYYCFQGSHFPLTFGQGTKLEIKR
B4: A72 (antibody, human IgG1, kappa, L234A L235A)
light: VVMTQTPLSLPVSLGDQASISCRSSQSIVHYNTNTYLEWYLQKPGQSPQLLIYKVSNRFSGVPDRFSGSGSGTDFTLKISRVEAEDLGVYYCFQGSHFPLTFGQGTKLEIKRTVAAPSVFIFPPSDEQLKSGTASVVCLLNNFYPREAKVQWKVDNALQSGNSQESVTEQDSKDSTYSLSSTLTLSKADYEKHKVYACEVTHQGLSSPVTKSFNRGEC
heavy: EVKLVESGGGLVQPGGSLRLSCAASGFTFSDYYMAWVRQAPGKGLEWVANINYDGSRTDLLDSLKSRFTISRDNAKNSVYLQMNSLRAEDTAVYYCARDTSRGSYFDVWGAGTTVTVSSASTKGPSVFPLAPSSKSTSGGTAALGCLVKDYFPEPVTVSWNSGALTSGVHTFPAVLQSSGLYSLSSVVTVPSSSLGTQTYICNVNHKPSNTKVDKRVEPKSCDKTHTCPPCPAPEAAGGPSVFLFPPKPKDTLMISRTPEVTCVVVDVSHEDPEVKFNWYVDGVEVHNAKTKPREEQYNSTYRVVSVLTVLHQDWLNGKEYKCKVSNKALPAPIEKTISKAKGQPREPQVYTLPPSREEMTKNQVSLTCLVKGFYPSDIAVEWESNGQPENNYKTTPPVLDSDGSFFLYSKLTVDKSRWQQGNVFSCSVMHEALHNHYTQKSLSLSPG
B5: A73 (antibody, human IgG1, kappa, L234A L235A, V domains shown)
VH: EVQLVESGGGLVQPGGSLRLSCAASGFTFSDYYMAWVRQAPGKGLEWVANINYEGSRTDLLESLKSRFTISRDNAKNSVYLQMNSLRAEDTAVYYCARDTSRGSYFDVWGAGTTVTVSS
VL: VVMTQTPLSLPVSLGDQASISCRSSQSIVHYNGKTYLEWYLQKPGQSPQLLIYKVSNRFSGVPDRFSGSGSGTDFTLKISRVEAEDLGVYYCFQGSHFPLTFGQGTKLEIKR
B6: A74 (antibody, human IgG1, kappa, L234A L235A, V domains shown)
VH: EVQLVESGGGLVQPGGSLRLSCAASGFTFSDYYMAWVRQAPGKGLEWVANINYYGSRTDLLESLKSRFTISRDNAKNSVYLQMNSLRAEDTAVYYCARDTSRGSYFDVWGAGTTVTVSS
VL: VVMTQTPLSLPVSLGDQASISCRSSQSIVHYNGKTYLEWYLQKPGQSPQLLIYKVSNRFSGVPDRFSGSGSGTDFTLKISRVEAEDLGVYYCFQGSHFPLTFGQGTKLEIKR
B7: A75 (antibody, human IgG1, kappa, L234A L235A, V domains shown)
VH: EVQLVESGGGLVQPGGSLRLSCAASGFTFSDYYMAWVRQAPGKGLEWVANINYEGSRTDLLASLKSRFTISRDNAKNSVYLQMNSLRAEDTAVYYCARDTSRGSYFDVWGAGTTVTVSS
VL: VVMTQTPLSLPVSLGDQASISCRSSQSIVHYNGKTYLEWYLQKPGQSPQLLIYKVSNRFSGVPDRFSGSGSGTDFTLKISRVEAEDLGVYYCFQGSHFPLTFGQGTKLEIKR
B8: A76 (antibody, human IgG1, kappa, L234A L235A, V domains shown)
VH: EVQLVESGGGLVQPGGSLRLSCAASGFTFSDYYMAWVRQAPGKGLEWVANINYYGSRTDLLASLKSRFTISRDNAKNSVYLQMNSLRAEDTAVYYCARDTSRGSYFDVWGAGTTVTVSS
VL: VVMTQTPLSLPVSLGDQASISCRSSQSIVHYNGKTYLEWYLQKPGQSPQLLIYKVSNRFSGVPDRFSGSGSGTDFTLKISRVEAEDLGVYYCFQGSHFPLTFGQGTKLEIKR
B9: A77 (antibody, human IgG1, kappa, L234A L235A)
light: VVMTQTPLSLPVSLGDQASISCRSSQSIVHYNGKTYLEWYLQKPGQSPQLLIYKVSNRFSGVPDRFSGSGSGTDFTLKISRVEAEDLGVYYCFQGSHFPLTFGQGTKLEIKRTVAAPSVFIFPPSDEQLKSGTASVVCLLNNFYPREAKVQWKVDNALQSGNSQESVTEQDSKDSTYSLSSTLTLSKADYEKHKVYACEVTHQGLSSPVTKSFNRGEC
heavy: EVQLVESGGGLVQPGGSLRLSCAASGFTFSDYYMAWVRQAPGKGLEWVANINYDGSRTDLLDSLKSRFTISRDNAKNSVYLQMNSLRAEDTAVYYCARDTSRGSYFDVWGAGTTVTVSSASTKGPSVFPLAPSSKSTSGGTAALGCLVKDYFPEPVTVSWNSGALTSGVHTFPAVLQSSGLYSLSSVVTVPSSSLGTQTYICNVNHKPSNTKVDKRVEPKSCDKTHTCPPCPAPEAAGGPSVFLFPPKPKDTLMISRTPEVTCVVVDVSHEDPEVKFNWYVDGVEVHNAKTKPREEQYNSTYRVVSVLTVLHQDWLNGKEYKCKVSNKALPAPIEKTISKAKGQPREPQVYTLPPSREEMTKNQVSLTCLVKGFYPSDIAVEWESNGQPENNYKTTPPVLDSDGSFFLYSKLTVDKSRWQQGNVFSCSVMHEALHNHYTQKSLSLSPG
B10: A78 (antibody, human IgG1, kappa, L234A L235A, V domains shown)
VH: EVQLVESGGGLVQPGGSLRLSCAASGFTFSDYYMAWVRQAPGKGLEWVANINYEGSRTDLLDSLKSRFTISRDNAKNSVYLQMNSLRAEDTAVYYCARDTSRGSYFDVWGAGTTVTVSS
VL: VVMTQTPLSLPVSLGDQASISCRSSQSIVHYNGKTYLEWYLQKPGQSPQLLIYKVSNRFSGVPDRFSGSGSGTDFTLKISRVEAEDLGVYYCFQGSHFPLTFGQGTKLEIKR
B11: A79 (antibody, human IgG1, kappa, L234A L235A, V domains shown)
VH: EVQLVESGGGLVQPGGSLRLSCAASGFTFSDYYMAWVRQAPGKGLEWVANINYDGSRTDLLESLKSRFTISRDNAKNSVYLQMNSLRAEDTAVYYCARDTSRGSYFDVWGAGTTVTVSS
VL: VVMTQTPLSLPVSLGDQASISCRSSQSIVHYNGKTYLEWYLQKPGQSPQLLIYKVSNRFSGVPDRFSGSGSGTDFTLKISRVEAEDLGVYYCFQGSHFPLTFGQGTKLEIKR
B12: A80 (antibody, human IgG1, kappa, L234A L235A)
light: VVMTQTPLSLPVSLGDQASISCRSSQSIVHYNGKTYLEWYLQKPGQSPQLLIYKVSNRFSGVPDRFSGSGSGTDFTLKISRVEAEDLGVYYCFQGSHFPLTFGQGTKLEIKRTVAAPSVFIFPPSDEQLKSGTASVVCLLNNFYPREAKVQWKVDNALQSGNSQESVTEQDSKDSTYSLSSTLTLSKADYEKHKVYACEVTHQGLSSPVTKSFNRGEC
heavy: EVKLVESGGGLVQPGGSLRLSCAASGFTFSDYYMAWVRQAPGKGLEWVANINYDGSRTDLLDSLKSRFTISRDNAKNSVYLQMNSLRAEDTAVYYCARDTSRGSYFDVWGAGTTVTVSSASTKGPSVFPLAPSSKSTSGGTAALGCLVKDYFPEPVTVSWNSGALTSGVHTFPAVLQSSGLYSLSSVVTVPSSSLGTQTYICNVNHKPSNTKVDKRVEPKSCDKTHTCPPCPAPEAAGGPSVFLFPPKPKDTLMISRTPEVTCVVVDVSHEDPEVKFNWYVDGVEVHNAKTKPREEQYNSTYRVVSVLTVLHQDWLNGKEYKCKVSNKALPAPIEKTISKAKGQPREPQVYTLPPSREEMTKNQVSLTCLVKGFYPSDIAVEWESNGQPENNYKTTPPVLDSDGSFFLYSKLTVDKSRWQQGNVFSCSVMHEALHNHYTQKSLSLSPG
B13: A81 (antibody, human IgG1, kappa, L234A L235A, V domains shown)
VH: EVQLVESGGGLVQPGGSLRLSCAASGFTFSDYYMAWVRQAPGKGLEWVANINYEGSRTDLLESLKSRFTISRDNAKNSVYLQMNSLRAEDTAVYYCARDTSRGSYFDVWGAGTTVTVSS
VL: VVMTQTPLSLPVSLGDQASISCRSSQSIVHYNEKTYLEWYLQKPGQSPQLLIYKVSNRFSGVPDRFSGSGSGTDFTLKISRVEAEDLGVYYCFQGSHFPLTFGQGTKLEIKR
B14: A82 (antibody, human IgG1, kappa, L234A L235A, V domains shown)
VH: EVQLVESGGGLVQPGGSLRLSCAASGFTFSDYYMAWVRQAPGKGLEWVANINYYGSRTDLLESLKSRFTISRDNAKNSVYLQMNSLRAEDTAVYYCARDTSRGSYFDVWGAGTTVTVSS
VL: VVMTQTPLSLPVSLGDQASISCRSSQSIVHYNEKTYLEWYLQKPGQSPQLLIYKVSNRFSGVPDRFSGSGSGTDFTLKISRVEAEDLGVYYCFQGSHFPLTFGQGTKLEIKR
B15: A83 (antibody, human IgG1, kappa, L234A L235A, V domains shown)
VH: EVQLVESGGGLVQPGGSLRLSCAASGFTFSDYYMAWVRQAPGKGLEWVANINYEGSRTDLLASLKSRFTISRDNAKNSVYLQMNSLRAEDTAVYYCARDTSRGSYFDVWGAGTTVTVSS
VL: VVMTQTPLSLPVSLGDQASISCRSSQSIVHYNEKTYLEWYLQKPGQSPQLLIYKVSNRFSGVPDRFSGSGSGTDFTLKISRVEAEDLGVYYCFQGSHFPLTFGQGTKLEIKR
B16: A84 (antibody, human IgG1, kappa, L234A L235A, V domains shown)
VH: EVQLVESGGGLVQPGGSLRLSCAASGFTFSDYYMAWVRQAPGKGLEWVANINYYGSRTDLLASLKSRFTISRDNAKNSVYLQMNSLRAEDTAVYYCARDTSRGSYFDVWGAGTTVTVSS
VL: VVMTQTPLSLPVSLGDQASISCRSSQSIVHYNEKTYLEWYLQKPGQSPQLLIYKVSNRFSGVPDRFSGSGSGTDFTLKISRVEAEDLGVYYCFQGSHFPLTFGQGTKLEIKR

What follows are binders tested against T1, Full-length human CTGF (assay: SPR, full length CTGF).

B1 and B2 are within 1.5-fold of each other in Kd: 0.28 nM for the first, 0.27 nM for the second.

B3 and B4 are within 1.5-fold of each other in Kd: 0.28 nM for the first, 0.27 nM for the second.

Compared with B5, B6 is 2.9-fold lower in Kd: 0.58 nM for the first, 0.2 nM for the second.

B7 and B8 are within 1.5-fold of each other in Kd: 0.17 nM for the first, 0.18 nM for the second.

B9 and B10 are the same in Kd: 0.23 nM for the first, 0.23 nM for the second.

Compared with B11, B12 is 1.6-fold higher in Kd: 0.16 nM for the first, 0.25 nM for the second. The first binds more tightly here.

B13 and B14 are within 1.5-fold of each other in Kd: 0.29 nM for the first, 0.36 nM for the second.

B15 and B16 are within 1.5-fold of each other in Kd: 0.26 nM for the first, 0.29 nM for the second.

From patent US20250277020A1 (Boehringer Ingelheim, published 2025)
